Reference: article PMC6366716

Biological target: Fbw7α (UniProt Q969H0)
Assay: anti-HA co-IP, anti-FLAG blot
Conditions: reference: wild-type HA-SV40 LT; sites T701

SV40 LT (from UniProt P03070) HA-SV40 LT T701A
binding against the reference: lost
